Test results taken from IntAct's records for PubMed 25686249.

Tests used:
[1] = biological target: atg12_mouse Atg12 (UniProt Q9CQY1)
[2] = biological target: pdc6i_human PDCD6IP (UniProt Q8WUM4)
pdc6i_human PDCD6IP, sequence (Q8WUM4 whole entry): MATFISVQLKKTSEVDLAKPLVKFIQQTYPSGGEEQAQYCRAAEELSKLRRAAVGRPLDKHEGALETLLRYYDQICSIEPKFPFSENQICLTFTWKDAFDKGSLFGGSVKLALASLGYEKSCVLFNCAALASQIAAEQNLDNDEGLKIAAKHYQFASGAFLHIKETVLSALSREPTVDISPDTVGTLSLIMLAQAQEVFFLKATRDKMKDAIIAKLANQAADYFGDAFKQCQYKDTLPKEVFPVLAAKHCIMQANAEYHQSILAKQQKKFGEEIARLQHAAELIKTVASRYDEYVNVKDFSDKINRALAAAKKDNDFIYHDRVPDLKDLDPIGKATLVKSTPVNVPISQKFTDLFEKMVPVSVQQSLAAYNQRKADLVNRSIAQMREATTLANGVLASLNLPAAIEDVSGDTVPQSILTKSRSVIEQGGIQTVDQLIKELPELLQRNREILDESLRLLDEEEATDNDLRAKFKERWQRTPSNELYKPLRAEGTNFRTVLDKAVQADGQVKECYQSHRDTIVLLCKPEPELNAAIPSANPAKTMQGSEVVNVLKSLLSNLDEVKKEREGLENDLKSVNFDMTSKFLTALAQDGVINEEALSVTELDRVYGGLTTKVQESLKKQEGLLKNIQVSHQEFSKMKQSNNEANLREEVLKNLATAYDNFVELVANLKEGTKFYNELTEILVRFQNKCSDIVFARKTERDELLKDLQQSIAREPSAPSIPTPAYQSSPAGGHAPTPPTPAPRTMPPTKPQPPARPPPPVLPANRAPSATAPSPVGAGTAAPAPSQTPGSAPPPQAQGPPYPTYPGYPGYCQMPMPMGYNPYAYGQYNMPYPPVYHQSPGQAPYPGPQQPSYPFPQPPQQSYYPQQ

Ubiquitin-like-conjugating enzyme ATG3 (Mus musculus), Q9CPX6 K243R, sequence (Q9CPX6 whole entry K243R): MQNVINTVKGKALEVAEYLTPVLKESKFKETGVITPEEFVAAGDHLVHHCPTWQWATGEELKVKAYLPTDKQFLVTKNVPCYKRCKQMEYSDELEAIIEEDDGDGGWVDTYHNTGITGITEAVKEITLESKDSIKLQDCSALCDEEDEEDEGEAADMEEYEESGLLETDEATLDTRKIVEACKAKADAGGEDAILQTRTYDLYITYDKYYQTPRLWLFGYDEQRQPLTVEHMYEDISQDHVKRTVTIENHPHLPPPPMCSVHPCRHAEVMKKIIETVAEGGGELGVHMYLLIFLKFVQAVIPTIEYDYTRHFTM
atg12_mouse Atg12, sequence (Q9CQY1 whole entry): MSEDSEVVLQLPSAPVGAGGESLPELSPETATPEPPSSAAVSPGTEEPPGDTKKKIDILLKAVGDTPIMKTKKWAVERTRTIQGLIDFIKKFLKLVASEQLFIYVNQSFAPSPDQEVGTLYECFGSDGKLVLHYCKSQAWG

With “Ubiquitin-like-conjugating enzyme ATG3 (Mus musculus), Q9CPX6 K243R” the “effect of a mutation on the interaction” value [1] was “disrupting interaction strength” and the “effect of a mutation on the interaction” value [2] was “disrupting interaction strength”.
